Assays:
[1] = biological target: Purified Mor1 (Example 9) (Mus musculus (Mouse)) (UniProt P42866); test: method not told at that place (Ki; presumably radioligand displacement)
[2] = biological target: Purified Mor1 (Example 9) (Mus musculus (Mouse)) (UniProt P42866); test: cell-based or functional assay

Sequence of Purified Mor1 (Example 9) (Mus musculus (Mouse)) (P42866 52-358, tags or fused parts left off): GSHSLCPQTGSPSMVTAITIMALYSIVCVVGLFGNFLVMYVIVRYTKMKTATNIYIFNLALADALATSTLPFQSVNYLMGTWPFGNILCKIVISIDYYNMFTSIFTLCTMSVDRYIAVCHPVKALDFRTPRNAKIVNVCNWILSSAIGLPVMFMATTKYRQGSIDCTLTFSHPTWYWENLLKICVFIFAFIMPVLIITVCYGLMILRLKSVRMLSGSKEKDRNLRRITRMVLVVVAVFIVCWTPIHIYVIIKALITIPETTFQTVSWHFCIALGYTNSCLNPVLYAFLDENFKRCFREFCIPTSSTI

Binder	Ki [1]	enhancement of BU72 affinity for Mor1 in HDL particles [2]	inhibition constant (Ki) of agonist BU72 in [3H]-diprenorphine competition on Mor1 in HDL particles, in presence of 5 µM XA8639 [2]
XA8635 (VHH) VHH: QVQLVESGGGLVQAGGSLRLSCAASGSISSISTMGWYRQAPGNERELVAAITSGGSTNYADSVKGRFTISRDNAKNTVYLQMNSLKPEDTAVYYCNFKYYSGSYFYKSEYDYWGQGTQVTVSS	12 nM	–	–
XA8639 (VHH) VHH: QVQLVESGGGLVRPGGSLRLSCVDSERTSYPMGWFRRAPGKEREFVASITWSGIDPTYADSVADRFTTSRDVANNTLYLQMNSLKHEDTAVYYCAARAPVGQSSSPYDYDYWGQGTQVTVSS	–	176 fold	0.0085 nM

— patent US20170183404A1
